Here are results for one protein from PMC5404824, “Engineering Nucleotide Specificity of Succinyl-CoA Synthetase in Blastocystis: The Emerging Role of Gatekeeper Residues” (Biochemistry, 2016).

Substrate in the data set: Nc1ncnc2c1ncn2[C@@H]1O[C@H](COP(=O)(O)OP(=O)(O)OP(=O)(O)O)[C@@H](O)[C@H]1O
Kind of data set: purified protein. Particulars: 129 μM CoA, 10 mM succinate, 50 mM KCl, 10 mM MgCl2, 50 mM Tris-HCl pH 7.4, 30 nM enzyme.

B1: Blastocystis SCS (succinyl-CoA synthetase, SCSα + SCSβ) (Blastocystis sp. ATCC 50177/Nand II) (protein)
chain: LNIHEWQSKQLIQKYGGRAQSGEVAFSPERSRDIAKKLWNQFPGCKFVVKAQVLAGGRGKGHWEHGMQGGVKLAKTPEEVYEIANEMIGHKLITKQTGAKGINCNKVMVCGAVKILKEFYLSILLDRAMGCPVIIATSQGGMGIEEVAQKCPECLFKVPISVKNGPTNEQLVKLAKDLGLEGDLVQDCVDNVKALYQVFDKCDSTMVEINPLGVIETPTDEKVICCLDAKIAFDKDAAFRQKEIFALRDKSREDPRDVRASLADLNYVGLDGDIGCMVNGAGLAMATMDTINYFGGSAANFLDVGGNAKKEQITEALRILNSDKHVKSILINIFGGIMRCDVVAQGIMDAVREMKLDLPLVVRLEGTNVAKGKEILKSSGLNIIPANDLGDAAKKAVASLKH
As to B1, the Michaelis constant (Km) stood at 145 ± 47 µM, the kcat was 0.0139 s⁻¹ and the kcat/Km is 96 M⁻¹ s⁻¹.

As usually defined, the Km is the substrate concentration at which the rate is half of its maximum. A word on the kcat: it is the maximal rate divided by the concentration of active sites. One may read the kcat/Km as the turnover number divided by the Michaelis constant.
